Values quoted from earlier work in PMC9659328.

Target: thrombin (Homo sapiens) (UniProt P00734)

Kd: 2 nM
Substance: thrombomodulin (from UniProt P07204)
